Here are results for two molecules from patent US20120076826A1.

The target in experiment [1] is recombinant Can f 4 (dog). Briefly: experimental rCan f 4 ImmunoCAP.
The target of experiment [2] is IgE of Bos d 23k-reactive serum A. Briefly: ImmunoCAP IgE inhibition; serum preincubated with 100 µg/mL rCan f 4, Bos d 23k immobilized.
For experiment [3], the target named is IgE of Bos d 23k-reactive serum B. The experiment is described as above.
The target of experiment [4] is IgE of Bos d 23k-reactive serum C. The description is as above.

For myeloma IgE (antibody), the allergen specific IgE antibody in experiment [1] is 0.023 kUA/L.

B1: recombinant Can f 4 (protein, not shown: small tags and cut ends)
chain: QLPLPNVLTQVSGPWKTLYISSNNLDKIGDNGPFRIYMRGINVDIPRLKMSFNFYVKVDGECVENSVGASIGRDNLIKGEYNGGNYFRIIDMTPNALIGYDVNVDSKGKITKVALLMGRGAHVNEEDIAKFKKLSREKGIPEENIIYLGDTDNCPNHE
modifications: N-terminal Met; C-terminal His6 tag
For the molecule B1, the percent inhibition of IgE binding to Bos d 23k in experiment [2], in experiment [3] and in experiment [4] was over 96% throughout.
